Results reported in patent US20170204150A1 (Stanford University, published 2017).

How the values were obtained:
VEGFR2-Fc [1] = target: T1, VEGFR2-Fc (UniProt P35968 20-764, limits assumed); experiment: yeast surface display: scVEGFmut displayed on the yeast cell surface, titrated with soluble VEGFR2-Fc (upper table; taken as the yeast-display table from legend paragraph 18)
T1 construct: Neither the source nor the limits of the VEGFR2-Fc construct are stated; also called VEGFR2 receptor; not shown: Fc part
T1 sequence (P35968 20-764 limits assumed): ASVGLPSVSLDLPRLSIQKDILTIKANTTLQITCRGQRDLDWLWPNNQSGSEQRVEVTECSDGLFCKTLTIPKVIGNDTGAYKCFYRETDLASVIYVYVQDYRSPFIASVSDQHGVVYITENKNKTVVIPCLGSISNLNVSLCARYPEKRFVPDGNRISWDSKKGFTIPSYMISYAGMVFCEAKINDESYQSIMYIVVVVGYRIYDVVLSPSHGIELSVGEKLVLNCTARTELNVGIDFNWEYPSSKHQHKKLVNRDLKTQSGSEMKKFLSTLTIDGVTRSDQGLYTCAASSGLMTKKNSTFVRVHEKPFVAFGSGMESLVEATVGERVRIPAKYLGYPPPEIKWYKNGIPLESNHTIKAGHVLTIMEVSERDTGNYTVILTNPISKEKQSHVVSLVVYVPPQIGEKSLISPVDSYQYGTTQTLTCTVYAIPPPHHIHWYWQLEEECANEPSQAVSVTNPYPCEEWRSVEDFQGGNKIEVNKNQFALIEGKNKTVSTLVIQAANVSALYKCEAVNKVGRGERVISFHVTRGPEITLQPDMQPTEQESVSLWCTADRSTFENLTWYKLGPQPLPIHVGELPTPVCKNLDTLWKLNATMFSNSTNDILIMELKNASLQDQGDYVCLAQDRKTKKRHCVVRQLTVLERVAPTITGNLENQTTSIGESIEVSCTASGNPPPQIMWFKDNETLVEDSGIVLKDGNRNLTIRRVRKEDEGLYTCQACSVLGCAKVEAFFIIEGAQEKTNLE

VEGFR2-Fc [2] = target: T1, VEGFR2-Fc; experiment: soluble protein binding to VEGFR2-Fc, Octet platform (lower table; taken as the soluble-form table from legend paragraph 18 and paragraph 153)
Excerpt: The Octet® platform was used to measure the soluble affinity of the variants to VEGFR2-Fc and their respective target proteins. As with the results on the yeast surface, the variants' affinities to VEGFR2-Fc were similar to each other and to scVEGFmut.

VEGFR2-Fc [3] = target: T1, VEGFR2-Fc; experiment: yeast surface display, titration with soluble VEGFR2-Fc, % maximum VEGFR2-Fc bound
[4] = target: T2, prostate specific membrane antigen (PSMA) (UniProt Q04609 44-750, limits assumed); experiment: yeast surface display: VEGFR2/PSMA displayed on the yeast cell surface, titrated with soluble PSMA (upper table; taken as the yeast-display table from legend paragraph 18)
T2 construct: also called folate hydrolase I
T2 sequence (Q04609 44-750 limits assumed): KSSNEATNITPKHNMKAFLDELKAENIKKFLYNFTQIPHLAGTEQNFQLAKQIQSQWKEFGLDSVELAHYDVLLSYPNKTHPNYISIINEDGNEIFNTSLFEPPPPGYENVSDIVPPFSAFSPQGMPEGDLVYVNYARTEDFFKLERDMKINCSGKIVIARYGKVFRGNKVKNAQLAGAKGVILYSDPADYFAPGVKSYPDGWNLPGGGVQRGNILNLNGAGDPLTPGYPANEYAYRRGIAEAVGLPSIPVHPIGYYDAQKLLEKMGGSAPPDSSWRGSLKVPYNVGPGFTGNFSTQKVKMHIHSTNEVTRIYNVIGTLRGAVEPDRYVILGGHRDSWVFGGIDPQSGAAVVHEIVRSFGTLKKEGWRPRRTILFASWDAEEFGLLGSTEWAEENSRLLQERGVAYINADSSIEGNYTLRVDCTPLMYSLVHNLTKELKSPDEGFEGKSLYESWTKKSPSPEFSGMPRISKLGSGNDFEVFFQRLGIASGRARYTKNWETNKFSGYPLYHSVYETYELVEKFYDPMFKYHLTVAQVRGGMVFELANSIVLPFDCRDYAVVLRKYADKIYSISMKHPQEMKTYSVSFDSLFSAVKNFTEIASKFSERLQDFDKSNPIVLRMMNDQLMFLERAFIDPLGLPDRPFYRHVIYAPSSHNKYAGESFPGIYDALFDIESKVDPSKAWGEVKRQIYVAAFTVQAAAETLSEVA

[5] = target: T2, prostate specific membrane antigen …; experiment: yeast surface display, titration with soluble PSMA, PSMA bound in arbitrary fluorescence
VEGFR2-Fc [6] = target: T1, VEGFR2-Fc; experiment: yeast surface display: VEGFR2/PSMA displayed on the yeast cell surface, titrated with soluble VEGFR2-Fc (upper table; taken as the yeast-display table from legend paragraph 18)

| Binder | Kd (VEGFR2-Fc [1]) | Kd (VEGFR2-Fc [2]) | EC50 (read off the curve) (VEGFR2-Fc [3]) | Kd [4] | EC50 (read off the curve) [5] | Kd (VEGFR2-Fc [6]) |
| --- | --- | --- | --- | --- | --- | --- |
| scVEGFmut (ligand, also called single-chain antagonist mutant VEGF; scaffold protein) APMAEGGGQNHHEVVKAMDVYQRSYCHPIETLVDIFQEYPDEIEYIFKPSCVPLMRCGGCCNDAGLECVPTEESNITMQIMRIKPHQGQHIGEMSFLQHNKCECRPKKDRARQEKCDKPRRGGGGSGGGGSGGGGSGGGGSAPMAEGGGQNHHEVVKFMDVYQRSYCHPIETLVDIFQEYPDEIEYAFKPSCVPLMRCGGCCNDEGLECVPTEESNITMQIMRAKPHQGQHIGEMSFLQHNKCECRPKKDRARQEKCDKPRR | 6 nM | 13 nM | ~6 nM |  |  |  |
| VEGFR2/PSMA protein (designed binder) EVVKAMDVYQRSYCHPIETLVDIFQEYPDEIEYIFKPSCVPLMRCGGCCNDAGLECVPTEESNITMQIMRIKPHQGQHIGEMSFLQHNKCECRPKKDGGGGSGGGGSGGGGSGGGGSEVVKFMDVYQRSYCHPIETLVDIFQEYPSIASWNPWMAFKPSCVPLMRCGGCCNDEGLECVPTEESNITMQIMRNRLFRYLPVRHIGEMSFLQHNKCECRPKKD |  | 13 nM | ~4 nM | 58 nM | ~40 nM | 4.6 nM |
